Results from patent US20190328788A1 (GENAGON THERAPEUTICS, published 2019).
Ends that are not written are not given here.

T1: transforming growth factor-beta 3 (TGF-β3) (UniProt P10600 301-412)
T1 construct: also called TGFb3; TGFB3
T1 sequence (looked up): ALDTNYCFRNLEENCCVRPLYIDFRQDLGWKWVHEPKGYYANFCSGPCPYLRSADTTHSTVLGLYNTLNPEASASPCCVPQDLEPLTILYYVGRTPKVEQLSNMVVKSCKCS

T2: Growth and Differentiation Factor 15 (GDF15) (UniProt Q99988 197-308, limits assumed)
T2 construct: also called MIC-1; MIC1
T2 sequence (looked up): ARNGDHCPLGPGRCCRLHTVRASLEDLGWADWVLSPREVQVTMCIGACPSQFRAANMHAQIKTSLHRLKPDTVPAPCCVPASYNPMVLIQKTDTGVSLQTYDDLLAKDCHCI

T3: transforming growth factor-beta 2 (TGF-β2) (UniProt P61812 303-414)
T3 construct: also called TGFb2; TGFB2
T3 sequence (looked up): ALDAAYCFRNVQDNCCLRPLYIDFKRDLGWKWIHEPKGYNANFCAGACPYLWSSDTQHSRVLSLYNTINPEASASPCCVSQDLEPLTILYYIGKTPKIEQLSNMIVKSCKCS

B1: CLPTM1 peptide fragment of SEQ ID NO: 12 (peptide)
peptide: QAGPGGAPRVASRNLFPKDTG
modifications: also: biotinylated, site not given here
B2: CLPTM1 peptide fragment of SEQ ID NO: 33 (peptide)
peptide: LWRWQLYAAQSTKSPWNFLGDELYEQSDEEQDSVKVALLETNP
modifications: also: biotinylated, site not given here
notes: also called peptide 26; GT2
B3: CLPTM1 peptide fragment of SEQ ID NO: 37 (peptide)
peptide: TKSGFHPDPRQKALYRRLATVHMSRMINKYKRRRFQKTKN
modifications: also: biotinylated, site not given here
notes: also called peptide 30; GT6
B4: CLPTM1 peptide fragment of SEQ ID NO: 32 (peptide)
peptide: SGDYYPIIYFNDYWNLQKDYYPINESLASLPLRVSFCPLS
modifications: also: biotinylated, site not given here
notes: also called peptide 25; GT1
B5: CLPTM1 peptide fragment of SEQ ID NO: 39 (peptide)
peptide: PLDQYVKFDAVSGDYYPIIYFNDYWNLQKDYYPINESLA
modifications: also: biotinylated, site not given here
notes: also called peptide 32; GT8
B6: CLPTM1 peptide fragment of SEQ ID NO: 16 (peptide)
peptide: GSIYIHVYFTKSGFHPDPRQG
modifications: also: biotinylated, site not given here
B7: CLPTM1 peptide fragment of SEQ ID NO: 8 (peptide)
peptide: AAAQEADGARSAVVAAGGGSG
modifications: also: biotinylated, site not given here
B8: CLPTM1 peptide fragment of SEQ ID NO: 35 (peptide)
peptide: NAWQVIKGVLFRIFIIWAISSWFRRGPAPQDQAGPGGA
modifications: also: biotinylated, site not given here
notes: also called peptide 28; GT4
B9: CLPTM1 peptide fragment of SEQ ID NO: 36 (peptide)
peptide: DTLMNLHVYISEHEHFTDFNATSALFWEQHDLVYGDWTSG
modifications: also: biotinylated, site not given here
notes: also called peptide 29; GT5
B10: CLPTM1 peptide fragment of SEQ ID NO: 10 (peptide)
peptide: QNPPAQPAPNAWQVIKGVLFG
modifications: also: biotinylated, site not given here
B11: CLPTM1 peptide fragment of SEQ ID NO: 19 (peptide)
peptide: MIKRAEDYGPVEVISHWHPNG
modifications: also: biotinylated, site not given here
B12: CLPTM1 peptide fragment of SEQ ID NO: 15 (peptide)
peptide: SDGCYEHFAELDIPQSVQQNG
modifications: also: biotinylated, site not given here
B13: CLPTM1 peptide fragment of SEQ ID NO: 40 (peptide)
peptide: SGDYYPIIYFNDYWNLQKDYYPINESLA
modifications: also: biotinylated, site not given here
notes: also called peptide 33; GT9
B14: CLPTM1 peptide fragment of SEQ ID NO: 38 (peptide)
peptide: VSGDYYPIIYFNDYWNLQKDYYPINESLASLPLRVSFC
modifications: also: biotinylated, site not given here
notes: also called peptide 31; GT7
B15: CLPTM1 peptide fragment of SEQ ID NO: 13 (peptide)
peptide: LMNLHVYISEHEHFTDFNATG
modifications: also: biotinylated, site not given here
B16: CLPTM1 peptide fragment of SEQ ID NO: 14 (peptide)
peptide: SALFWEQHDLVYGDWTSGENG
modifications: also: biotinylated, site not given here
B17: CLPTM1 peptide fragment of SEQ ID NO: 18 (peptide)
peptide: RRRFQKTKNLLTGETEADPEG
modifications: also: biotinylated, site not given here
B18: CLPTM1 peptide fragment of SEQ ID NO: 17 (peptide)
peptide: KALYRRLATVHMSRMINKYKG
modifications: also: biotinylated, site not given here
notes: also called peptide 10
B19: CLPTM1 peptide fragment of SEQ ID NO: 11 (peptide)
peptide: RIFIIWAISSWFRRGPAPQDG
modifications: also: biotinylated, site not given here
B20: CLPTM1 peptide fragment of SEQ ID NO: 34 (peptide)
peptide: ARSAVVAAGGGSSGQVTSNGSIGRDPPAETQPQNPPAQPA
modifications: also: biotinylated, site not given here
notes: also called peptide 27; GT3

Target: T1, transforming growth factor-beta 3 …
Assay: ELISA, peptide on streptavidin plate, ligand 100 ng/ml
Procedure: (§1) Biotinylated synthetic peptide fragments from CLPTM1 (JPT peptides, Germany) were immobilized in a streptavidin 96 well plate (#15500 Pierce) at 1 μM in PBS over night at +4° C. Plate was then washed 4 times in 300 μl PBS with 0.05% tween-20 (wash buffer). The plate was then blocked with PBS 1% BSA and 0.05% tween-20 (blocking buffer) for 1.5 hours at room temperature, then washed 4 times in wash buffer. Ligands GDF15, TGFb1, TGFb2 and TGFb3 (Abcam) were added in blocking buffer at 100 ng/ml and incubated at room temperature for 2 hours. The plate was then washed 8 times in 300 μL wash buffer with 2× NaCl. An anti-GDF15 antibody was added at 1 μg/ml (R&D Systems, goat polyclonal) or a pan-specific anti-TGFb antibody (R&D Systems, mouse 1 D11), and the plate incubated in blocking buffer for 1 hour at room temperature followed by washing with 4×300 μl wash buffer. HAF017 anti-goat-HRP antibody (to detect the anti-GDF15 antibody) or Santa Cruz sc-2005 Goat anti-mouse-HRP (to detect the pan-specific anti-TGFb antibody) was added and the plate incubated for 1 hour in blocking buffer followed by a wash. TMB substrate was added and stopped after 15 minutes with H₂SO₄. OD 450-620 was measured in an ELISA reader.

First: B1
Second: B2
The “ELISA OD450” value of the first is lower: 0.004 OD450 for the first, 0.007 OD450 for the second.

Going from B3 to B4, the “ELISA OD450” value falls from 0.613 OD450 to 0.3 OD450.

First: B5
Second: B6
The “ELISA OD450” value of the first is higher: 0.074 OD450 for the first, 0.02 OD450 for the second.

Going from B7 to B8, the “ELISA OD450” value rises from 0.015 OD450 to 0.027 OD450.

Going from B9 to B10, the “ELISA OD450” value falls from 0.095 OD450 to 0.006 OD450.

B11 and B12 are the same in “ELISA OD450” value: 0.004 OD450 for the first, 0.004 OD450 for the second.

Going from B13 to B14, the “ELISA OD450” value falls from 0.399 OD450 to 0.091 OD450.

Going from B15 to B16, the “ELISA OD450” value rises from 0.014 OD450 to 0.02 OD450.

Going from B17 to B18, the “ELISA OD450” value rises from 0.004 OD450 to 0.046 OD450.

B19 and B20 are the same in “ELISA OD450” value: 0.003 OD450 for the first, 0.003 OD450 for the second.

Target: T2, Growth and Differentiation Factor 15 …
Assay: as above
Procedure: as §1

First: B1
Second: B2
The “ELISA OD450” value of the first is higher: 0.034 OD450 for the first, 0.021 OD450 for the second.

Going from B3 to B4, the “ELISA OD450” value rises from 0.209 OD450 to 0.779 OD450.

Compared with B5, B6 is higher in “ELISA OD450” value: 0.137 OD450 for the first, 0.149 OD450 for the second.

Compared with B7, B8 is higher in “ELISA OD450” value: 0.022 OD450 for the first, 0.029 OD450 for the second.

Going from B9 to B10, the “ELISA OD450” value falls from 0.174 OD450 to 0.042 OD450.

Compared with B11, B12 is lower in “ELISA OD450” value: 0.028 OD450 for the first, 0.024 OD450 for the second.

Going from B13 to B14, the “ELISA OD450” value falls from 0.518 OD450 to 0.383 OD450.

Going from B15 to B16, the “ELISA OD450” value falls from 0.058 OD450 to 0.034 OD450.

Going from B17 to B18, the “ELISA OD450” value rises from 0.021 OD450 to 0.197 OD450.

Compared with B19, B20 is lower in “ELISA OD450” value: 0.026 OD450 for the first, 0.016 OD450 for the second.

Target: T3, transforming growth factor-beta 2 …
Assay: as above
Procedure: as §1

Going from B1 to B2, the “ELISA OD450” value rises from -0.006 OD450 to 0.009 OD450.

Compared with B3, B4 is higher in “ELISA OD450” value: 0.483 OD450 for the first, 1.63 OD450 for the second.

Going from B5 to B6, the “ELISA OD450” value falls from 0.91 OD450 to 0.107 OD450.

Compared with B7, B8 is higher in “ELISA OD450” value: 0.01 OD450 for the first, 0.031 OD450 for the second.

Going from B9 to B10, the “ELISA OD450” value falls from 0.838 OD450 to 0.013 OD450.

Compared with B11, B12 is lower in “ELISA OD450” value: 0.002 OD450 for the first, -0.003 OD450 for the second.

Going from B13 to B14, the “ELISA OD450” value falls from 2.09 OD450 to 0.717 OD450.

First: B15
Second: B16
The “ELISA OD450” value of the first is higher: 0.005 OD450 for the first, 0.002 OD450 for the second.

First: B17
Second: B18
The “ELISA OD450” value of the first is lower: 0.002 OD450 for the first, 1.01 OD450 for the second.

Compared with B19, B20 is higher in “ELISA OD450” value: -0.003 OD450 for the first, 0.123 OD450 for the second.

Target: T4, transforming growth factor-beta 1 (TGF-β1) (UniProt P01137 279-390)
T4 construct: also called TGFb1; TGFB1
Assay: as above
Procedure: as §1

T4 sequence (P01137 279-390 limits assumed): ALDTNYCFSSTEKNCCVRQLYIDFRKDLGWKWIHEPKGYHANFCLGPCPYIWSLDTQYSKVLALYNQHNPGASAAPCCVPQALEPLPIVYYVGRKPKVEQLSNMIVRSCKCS

Going from B1 to B2, the “ELISA OD450” value rises from 0.003 OD450 to 0.177 OD450.

Going from B3 to B4, the “ELISA OD450” value rises from 0.389 OD450 to 2.1 OD450.

Compared with B5, B6 is lower in “ELISA OD450” value: 1.86 OD450 for the first, 0.122 OD450 for the second.

Compared with B7, B8 is higher in “ELISA OD450” value: 0.012 OD450 for the first, 0.098 OD450 for the second.

Compared with B9, B10 is lower in “ELISA OD450” value: 1.64 OD450 for the first, 0.026 OD450 for the second.

B11 and B12 are the same in “ELISA OD450” value: 0.006 OD450 for the first, 0.006 OD450 for the second.

Compared with B13, B14 is lower in “ELISA OD450” value: 2.81 OD450 for the first, 1.01 OD450 for the second.

Going from B15 to B16, the “ELISA OD450” value rises from 0.02 OD450 to 0.022 OD450.

Compared with B17, B18 is higher in “ELISA OD450” value: 0.002 OD450 for the first, 0.913 OD450 for the second.

First: B19
Second: B20
The “ELISA OD450” value of the first is lower: 0.008 OD450 for the first, 0.058 OD450 for the second.
